Measurements reported in publication PMC7954794, “Protein context shapes the specificity of SH3 domain-mediated interactions in vivo” (Nature Communications, 2021).

B1: YJL201W_1 (protein, UniProt P32525 1-599, looked up)
Protein ECM25: MIDINVNNIFFRSYSVDPNSGHAIYVFDSTYLPASDEIGDKQVYDLLINALMDRLVMKLPQAPYSLVIFSSGFSQRKISWVYGIKMFAKLPKETKFYLQKIFIVHESFFVRSVYQVISNAMNFNFLDSKDSQHDFPSLVHVLDLTSLSELIDITRLRISLNVYLYDYQIREHINVPEEYYNRLTPLAIRQYRQLVFDKIFKKLQNDALLCELIFQKPGNYKKVNIFLDIIKRNNYIDLSQWDIYSLASVWLNYFIKNKAKPLIPIELIPLPIVDDLKFTSETFRKIIKFNQYQDLFMVIIPFFNRIIAHGESTKHDSRTLSKALTPALCKEKLSMMTNDRLAIGSRYIKNLLDFFPEIAKEISSPPSSVSSSSTIPVLPKPRKSSPTRYSELGCLTLPRSRSPSPQRSVTSPTYTPVALQNTPVLKPKSSSRNVSSPSFNAKPPLPIKAVTRPQLSLTSNSNTDLALASSSTDTLSSPTKTPSADSLPLSNSSTDLTISDNIKEMVKDEPAKDKNSVETDIFVQQFESLTLVQNAKIKKFDKELQEKKKKNETTSKTADKFSQKGYSDIKASNKVSRLAALYEERLQGLQVMNEMKQRW
B2: YLR166C_1 (protein, UniProt Q06245 1-871, looked up)
Exocyst complex component …: MNSLYELDPKWKKLLKTDNFLGGLTVNEFVQELSKDHRNDVLIDANTKNLPTNEKDQDAIREAIWKQLDPKPYIRTFESTLKELKNLNEETLNKRQYFSEQVATQEVIHSENVIKLSKDLHTTLLTFDKLDDRLTNVTQVVSPLGDKLETAIKKKQNYIQSVELIRRYNDFYSMGKSDIVEQLRLSKNWKLNLKSVKLMKNLLILSSKLETSSIPKTINTKLVIEKYSEMMENELLENFNSAYRENNFTKLNEIAIILNNFNGGVNVIQSFINQHDYFIDTKQIDLENEFENVFIKNVKFKEQLIDFENHSVIIETSMQNLINDVETVIKNESKIVKRVFEEKATHVIQLFIQRVFAQKIEPRFEVLLRNSLSISNLAYVRILHGLFTLFGKFTKSLIDYFQLLEIDDSNQILSTTLEQCFADLFSHYLYDRSKYFGIEKRSLEAILVDMTSKFTVNYDKEINKRVLLDKYKEKLSTNVDAFMHSPRGNTHSRQDSTSRSKLSQFNSFLKTHLDKDHLSLNRTNTLSDSFNNSSSSTQYDVANNSSSLVNSSFTASDIDNSPNSPANYSLNDVDSMLKCVVESTARVMELIPNKAHLYILEILKIMFLGIVDSYMEIALEVAYWKICKVDINKTAGVVNLNFLKFISMSTEILDLLSISIKSIFLPLLNNSPEIKAQIIEMTNSQIQKMEILINIILQETITVISTKFSAILCKQKKKDFVPKSQELLDQDTLPAIEIVNILNLIFEQSSKFLKGKNLQTFLTLIGEELYGLLLSHYSHFQVNSIGGVVVTKDIIGYQTAIEDWGVASLIDKFATLRELANLFTVQPELLESLTKEGHLADIGRDIIQSYISNREDFNHDNFINSVKLNFR
B3: YLR436C_1 (protein, UniProt Q06673 1-1274, looked up)
Protein ECM30: MGNTDSKSSSILLNHCIALVRPEDADASSPSRTSSPSPSLSVDADPLSLNLSIFKLDSGPDVEALFSDKPNVPLDTVFNDFYLDFISVDVQDFSINSSFKKILHIISSLNPPNFNNLIVFLSLYIILSANSLPASRTGLHSSRLINAIKTLSILIPIYFDRVKSSTQDHYDVFWATQHEIEGLPLQNIPLGERLLLAILKLAFQDNFTTAVTAHPSELWEIGILTNSNKYRSLLNMHHQWHLFANRLLLLRLLAALFSSDLYTSGGKQDINMFLVYWCTQMPKDKSIQFTSSLLNCTMRFILNNNKDFQSLKANFFSSDATASNWQTLYFQFVQSCLHVLNLSMSYKAQDNVITIFLTQLQREYDLKLILSSFIKIFKYPIDLAIEQESNIFNFTNNKHIDASRRRAVSTSSHDNSSSSHASLPSSSSAAYHTKPQTKPQLPEIHPLLIPMTILMTNLIDCNKCFQNYFADKFASRFIIFSIYYLKYYDYSSLSSSSSTTRSNSSTTSNGTSNDTSNERSIVELNENSVSQILLPLLNHLLLILTSKKLVLFKMLQTFNLNYYTNNLPNFYKLSNINGDINNLTFRDFTVIQLSNLILDNIKFNLQPNPIFYELIYNLLPINDEILTSSHKNDDSHDDLILLSAKKKSASPSAATSSHTSSSKLSYNAAMSLLYVLSKSSNKVYLTTYATPVFKTKDIPYMISPGFKMDLLALLLRSITIFFTLYFDDAENLLFAMVRHQSITHQINDSINSISKALDMNPNLNSHIMTLKQMGFNRKVQWKDFYQFEEITDLPQVNLYSSANQQHQNQQQGQNDNRGQNQNEDPGQENESPTPYLLFNPASLENETPGTVKHFSSTNHDKNYQVIAFIDFKSDSNLNLQHQLEYWPHRPQWPTPLTFTHKCKNPKYENFNEVWSGTVYLQILLRVIKQILSKVPEIPRIKSVQYFETLSKLSALRSDILTTIHPRLPLDVRRLTTFQPLSMHTNDKLLMWFHIATWANIFTQTSFKYEETFSHELRQFESLLDISIDECEGNTISKPTTDRLGYIRRSRGQSSVSLERTISAGSGVSTPTMALNRTKSNGSGNLMNYFFQNTAQNHFQHLRSSSSSSSITLEKTTSNSSSIRTRPNSHHVAPETNNNNSTNGNSNNSSNGGFSFFKWKWGGNNSNGGSDDTKASQRDPNVSTSIITDNLNSYMFEEEISPGVVNNIIENNIWVGTDIRLFKIANFRKESFSFLEMTSSFFKKFKFINSDNDNYNNNEFDDNTQLRYTSRGLYR
B4: YMR192W_1 (protein, UniProt Q04322 1-720, looked up)
Probable GTPase-activating …: MNSNEDIHEERIEVPRTPHQTQPEKDSDRIALRDEISVPEGDEKAYSDEKVEMATTNASSNFGSNESAKDGESIGAFSNPHEALMQSKLREESQSKTILPSDDLSQQLETEESKVEEALKRITSPPLPPRADCIEESASALKSSLPPVLAGNKNDQAPLDRPQLPPRQVVNAETLHLKAPHGNATPSKSPTSAVGNSSSSTPPTLPPRRIEDPLDLAAQKHFLASTFKRNMLFYKSEDNSIKCDLDKNILNLKEDSKKINNNEIPEEVSSFWLKVIGDYQNILINDIETLHFQLSRGIPAAYRLVVWQLVSYAKSKSFDPIYETYLTEMAPFDVQEFENQLKMMDEVPSEYVKRISNVLKAYLLFDPECEFSTDIAYIINMILDVCEEEANAFGLLVRLMKVYGLRLLFLPSASEIDILCYKFDRLVEEFYPEIHNHMVEKGVRSSMFLPGFFTTLFQKKLPTEIQPRIGDMVFLEGIDSIMRILATLLSNSRDHLLKMGFDDMLELLKSGLLDAYIKQNDGTRGDTLLSNECMDKLLQDSMMKVAITPKTMKKYSSEYEEIHRLDNEKEVQYKSITEKNLHLQKHVRKLENDYTSLNREHVTIANELVKNRLNIESVLNENNGYKLQILDLKKKLDSEKKKQVLGVYVPNDLKKDLEETMKKNTQVMDENLKLQDRISELERLIEEIKTANKNGTLFEYSNSKNNPLGAGWSGFKKVFK

The molecules below were run on PPIs identified as affected by the SH3 domain deletions (assay: Liquid DHFR-PCA low-throughput validation of PPIs affected by SH3 deletion (Fig. S1D-E)). Conditions: bait LSB3; label = prey; liquid DHFR-PCA; prey _1 = lost, _2 = gained in screen.
Assay type: cell-based, Saccharomyces cerevisiae
How it was run: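 Growth at 30 °C was tracked by OD each 15 min over 72 h in agar-free PCA selection medium, starting at 0.1 OD. Cells were diploids selected after mating, first cultured 48 h with NAT and HPH in synthetic complete MSG medium, pH 6.0.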

Going from B1 to B2, the “Ratio (Deletedscore / WTscore)” value falls from 0.8948 to 0.4618.

Compared with B3, B4 is lower in “Ratio (Deletedscore / WTscore)” value: 0.9725 for the first, 0.5637 for the second.
